From patent US7524503B2, “Human cytomegalovirus (HCMV) cytotoxic T cell epitopes, polyepitopes compositions comprising same and diagnostic and prophylactic and therapeutic uses therefor” (priority 2001, dated 2009)

These sequences were tested against T1, HLA B7 (Homo sapiens, UniProt P01889) (assay: not given). Conditions: HLA B7 on transfected T2 cells; relative increase vs no peptide at 26° C.
T1 construct: expressed in transfected cells; host or cells: T2 cells
Assay type: cell-based

T1 sequence (P01889 25-362): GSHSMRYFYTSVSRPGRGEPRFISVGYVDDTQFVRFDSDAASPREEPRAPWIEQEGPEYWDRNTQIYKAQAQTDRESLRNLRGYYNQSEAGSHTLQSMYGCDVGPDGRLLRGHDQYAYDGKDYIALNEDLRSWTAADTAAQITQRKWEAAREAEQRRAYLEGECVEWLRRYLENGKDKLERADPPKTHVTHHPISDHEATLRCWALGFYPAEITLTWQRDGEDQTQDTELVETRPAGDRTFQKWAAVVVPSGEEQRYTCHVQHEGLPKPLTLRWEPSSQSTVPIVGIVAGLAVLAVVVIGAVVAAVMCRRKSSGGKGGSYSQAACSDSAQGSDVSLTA
T1 sequence (P61769 21-119, further chain): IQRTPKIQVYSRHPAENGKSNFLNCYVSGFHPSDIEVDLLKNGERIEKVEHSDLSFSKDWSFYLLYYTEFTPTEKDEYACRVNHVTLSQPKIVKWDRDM

Q: For “APVAGSMPEL (human cytomegalovirus US11 CTL epitope peptide)”, which “MSE (MHC stabilization efficiency)” value is on record?
A: The value was “+++ (+++ = 200-300%)”.

Q: “APYQRDNFIL (human cytomegalovirus gH CTL epitope peptide)” was tested. Which “MSE (MHC stabilization efficiency)” value did it give?
A: Its value is “+++ (+++ = 200-300%)”.

Q: Which “MSE (MHC stabilization efficiency)” value does the source give for EPMSIYVYAL here?
A: The value was “+ (+ = 51-99%)”.

Q: With “FPDLFCLPL (human cytomegalovirus gH CTL epitope peptide)” as the sequence, how does the “MSE (MHC stabilization efficiency)” value read?
A: Its value is “+++ (+++ = 200-300%)”.

Q: How did the “MSE (MHC stabilization efficiency)” value turn out when “KARDHLAVL (human cytomegalovirus pp150 CTL epitope peptide)” was run?
A: Its value is “+++ (+++ = 200-300%)”.

Q: For “MPRCLFAGPL (human cytomegalovirus gH CTL epitope peptide)”, which “MSE (MHC stabilization efficiency)” value is on record?
A: The value was “+++ (+++ = 200-300%)”.

Q: With “NVRRSWEEL (human cytomegalovirus pp150 CTL epitope peptide)” as the sequence, how does the “MSE (MHC stabilization efficiency)” value read?
A: The value was “++ (++ = 100-199%)”.

Q: For QARLTVSGL, which “MSE (MHC stabilization efficiency)” value is on record?
A: The value was “+++ (+++ = 200-300%)”.

Q: For “SPRTHYLML (human cytomegalovirus gH CTL epitope peptide)”, which “MSE (MHC stabilization efficiency)” value is on record?
A: The value was “+++ (+++ = 200-300%)”.

Q: Which “MSE (MHC stabilization efficiency)” value does the source give for “SPRTHYLMLL (human cytomegalovirus gH CTL epitope peptide)” here?
A: The value was “+++ (+++ = 200-300%)”.

Q: With “TPMLLIFGHL (human cytomegalovirus gH CTL epitope peptide)” as the sequence, how does the “MSE (MHC stabilization efficiency)” value read?
A: Its value is “++ (++ = 100-199%)”.

Q: With “TPRVYYQTL (human cytomegalovirus US11 CTL epitope peptide)” as the sequence, how does the “MSE (MHC stabilization efficiency)” value read?
A: The value was “+++ (+++ = 200-300%)”.

Each sequence was assayed on HLA A24 (assay: MHC stabilization assay on T2 cells). Conditions: HLA A24 on transfected T2 cells; relative increase vs no peptide at 26° C.
Assay type: cell-based, human

Q: For “AYEYVDYLF (human cytomegalovirus gB CTL epitope peptide)”, which “MSE (MHC stabilization efficiency)” value is on record?
A: Its value is “− (− = 0-50%)”.

Q: For “AYIYTTYLL (human cytomegalovirus gB CTL epitope peptide)”, which “MSE (MHC stabilization efficiency)” value is on record?
A: The value was “− (− = 0-50%)”.

Q: For “CYSRPVVIF (human cytomegalovirus gB CTL epitope peptide)”, which “MSE (MHC stabilization efficiency)” value is on record?
A: The value was “− (− = 0-50%)”.

Q: For “EYIVQIQNAF (human cytomegalovirus pp71 CTL epitope peptide)”, which “MSE (MHC stabilization efficiency)” value is on record?
A: The value was “+++ (+++ = 200-300%)”.

Q: With “KYTQTEEKF (human cytomegalovirus IE1 CTL epitope peptide)” as the sequence, how does the “MSE (MHC stabilization efficiency)” value read?
A: The value was “− (− = 0-50%)”.

Q: For “LYLCCGITL (human cytomegalovirus US6 CTL epitope peptide)”, which “MSE (MHC stabilization efficiency)” value is on record?
A: The value was “− (− = 0-50%)”.

Q: How did the “MSE (MHC stabilization efficiency)” value turn out when “MYMHDSDDVL (human cytomegalovirus gH CTL epitope peptide)” was run?
A: Its value is “− (− = 0-50%)”.

Q: Which “MSE (MHC stabilization efficiency)” value does the source give for “NYLDLSALL (human cytomegalovirus gH CTL epitope peptide)” here?
A: The value was “− (− = 0-50%)”.

Q: With “QYILGADPL (human cytomegalovirus IE1 CTL epitope peptide)” as the sequence, how does the “MSE (MHC stabilization efficiency)” value read?
A: Its value is “+++ (+++ = 200-300%)”.

Q: “SYENKTMQL (human cytomegalovirus gB CTL epitope peptide)” was tested. Which “MSE (MHC stabilization efficiency)” value did it give?
A: The value was “− (− = 0-50%)”.

Q: With “SYLKDSDFL (human cytomegalovirus gH CTL epitope peptide)” as the sequence, how does the “MSE (MHC stabilization efficiency)” value read?
A: The value was “− (− = 0-50%)”.

Q: For “SYRSFSQQL (human cytomegalovirus gH CTL epitope peptide)”, which “MSE (MHC stabilization efficiency)” value is on record?
A: The value was “− (− = 0-50%)”.

Q: Which “MSE (MHC stabilization efficiency)” value does the source give for “SYVVTNQYL (human cytomegalovirus gH CTL epitope peptide)” here?
A: The value was “− (− = 0-50%)”.

Q: How did the “MSE (MHC stabilization efficiency)” value turn out when “TYALVSKDL (human cytomegalovirus gH CTL epitope peptide)” was run?
A: Its value is “− (− = 0-50%)”.

Q: For “TYGRPIRFL (human cytomegalovirus gH CTL epitope peptide)”, which “MSE (MHC stabilization efficiency)” value is on record?
A: The value was “− (− = 0-50%)”.

Q: How did the “MSE (MHC stabilization efficiency)” value turn out when VYALPLKML was run?
A: The value was “− (− = 0-50%)”.

Q: Which “MSE (MHC stabilization efficiency)” value does the source give for “VYLFSLVVL (human cytomegalovirus US3 CTL epitope peptide)” here?
A: The value was “− (− = 0-50%)”.

Q: Which “MSE (MHC stabilization efficiency)” value does the source give for “VYVTVDCNL (human cytomegalovirus US2 CTL epitope peptide)” here?
A: The value was “− (− = 0-50%)”.

Q: VYYTSAFVF was tested. Which “MSE (MHC stabilization efficiency)” value did it give?
A: Its value is “− (− = 0-50%)”.

Q: “YYVFHMPRCL (human cytomegalovirus gH CTL epitope peptide)” was tested. Which “MSE (MHC stabilization efficiency)” value did it give?
A: Its value is “− (− = 0-50%)”.

These sequences were tested on PBMC from healthy HCMV seropositive donors (assay: IFN-γ ELISPOT assay). Conditions: donor five; peptide 10 μg/ml.
Assay type: cell-based, human
Method in brief: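 IFN-γ-secreting T cells were counted as spots, with no-peptide control wells subtracted and means taken from triplicate wells. These spots came from healthy seropositive carriers' PBMC, 2.5×10^5 per well.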

Q: How did the “ELISPOT Responses (SFC/10^6 PBMC)” value turn out when “NVRRSWEEL (human cytomegalovirus pp150 CTL epitope peptide)” was run?
A: The value was 274 SFC/10^6 PBMC.

Same assay, conditions: donor four; peptide 10 μg/ml

Q: “IMREFNSYK (human cytomegalovirus gB CTL epitope peptide)” was tested. Which “ELISPOT Responses (SFC/10^6 PBMC)” value did it give?
A: The value was “MB(202) SFC/10^6 PBMC”.

Q: How did the “ELISPOT Responses (SFC/10^6 PBMC)” value turn out when “KARDHLAVL (human cytomegalovirus pp150 CTL epitope peptide)” was run?
A: Its value is “MB(975) SFC/10^6 PBMC”.

Q: How did the “ELISPOT Responses (SFC/10^6 PBMC)” value turn out when “NVRRSWEEL (human cytomegalovirus pp150 CTL epitope peptide)” was run?
A: The value was 1431 SFC/10^6 PBMC.

Q: For QARLTVSGL, which “ELISPOT Responses (SFC/10^6 PBMC)” value is on record?
A: Its value is “MB(1116) SFC/10^6 PBMC”.

The sequences below were run against T2, HLA A3 (Homo sapiens, UniProt P04439) (assay: MHC stabilization assay on T2 cells). Conditions: HLA A3 on transfected T2 cells; relative increase vs no peptide at 26° C.
T2 construct: EGFP; expressed in transfected cells; host or cells: T2 cells
T2 sequence (P04439 25-365): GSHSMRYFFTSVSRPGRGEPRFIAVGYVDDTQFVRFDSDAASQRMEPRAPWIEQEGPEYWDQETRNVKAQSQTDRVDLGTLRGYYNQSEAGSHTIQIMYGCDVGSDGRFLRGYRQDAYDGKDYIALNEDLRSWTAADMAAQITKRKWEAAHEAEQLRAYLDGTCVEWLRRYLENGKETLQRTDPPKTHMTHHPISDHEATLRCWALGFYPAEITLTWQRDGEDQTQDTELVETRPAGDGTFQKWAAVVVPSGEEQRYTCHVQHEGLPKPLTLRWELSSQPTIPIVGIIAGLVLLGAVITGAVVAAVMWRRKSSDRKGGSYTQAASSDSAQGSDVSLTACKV
T2 sequence (P61769 21-119, further chain): as the sequence (P61769 21-119, further chain) above
Assay type: cell-based

Q: For “GIKHEGLVK (human cytomegalovirus pp28 CTL epitope peptide)”, which “MSE (MHC stabilization efficiency)” value is on record?
A: Its value is “+++ (+++ = 200-300%)”.

Q: Which “MSE (MHC stabilization efficiency)” value does the source give for GVMTRGRLK here?
A: Its value is “+++ (+++ = 200-300%)”.

Q: “IIYTRNHEVK (human cytomegalovirus IE2 CTL epitope peptide)” was tested. Which “MSE (MHC stabilization efficiency)” value did it give?
A: The value was “+++ (+++ = 200-300%)”.

Q: With “IMREFNSYK (human cytomegalovirus gB CTL epitope peptide)” as the sequence, how does the “MSE (MHC stabilization efficiency)” value read?
A: The value was “+++ (+++ = 200-300%)”.

Q: “KLGGALQAK (human cytomegalovirus IE1 CTL epitope peptide)” was tested. Which “MSE (MHC stabilization efficiency)” value did it give?
A: The value was “+++ (+++ = 200-300%)”.

Q: Which “MSE (MHC stabilization efficiency)” value does the source give for “KMTATFLSK (human cytomegalovirus gB CTL epitope peptide)” here?
A: The value was “+++ (+++ = 200-300%)”.

Q: With LLLQRGPQY as the sequence, how does the “MSE (MHC stabilization efficiency)” value read?
A: The value was “+++ (+++ = 200-300%)”.

Q: Which “MSE (MHC stabilization efficiency)” value does the source give for “LVEPCARVY (human cytomegalovirus pp28 CTL epitope peptide)” here?
A: The value was “NT/++ (++ = 100-199%)”.

Q: For “LVRLVYILSK (human cytomegalovirus gH CTL epitope peptide)”, which “MSE (MHC stabilization efficiency)” value is on record?
A: Its value is “+++ (+++ = 200-300%)”.

Q: Which “MSE (MHC stabilization efficiency)” value does the source give for “QLNRHSYLK (human cytomegalovirus gH CTL epitope peptide)” here?
A: Its value is “+++ (+++ = 200-300%)”.

Q: QVIGDQYVK was tested. Which “MSE (MHC stabilization efficiency)” value did it give?
A: The value was “++ (++ = 100-199%)”.

Q: With “RLFPDATVP (human cytomegalovirus gH CTL epitope peptide)” as the sequence, how does the “MSE (MHC stabilization efficiency)” value read?
A: Its value is “− (− = 0-50%)”.

Q: With “RLLDLAPNY (human cytomegalovirus pp28 CTL epitope peptide)” as the sequence, how does the “MSE (MHC stabilization efficiency)” value read?
A: Its value is “+++ (+++ = 200-300%)”.

Q: How did the “MSE (MHC stabilization efficiency)” value turn out when “RLNTYALVSK (human cytomegalovirus gH CTL epitope peptide)” was run?
A: Its value is “+++ (+++ = 200-300%)”.

Q: With RVTGGGAMA as the sequence, how does the “MSE (MHC stabilization efficiency)” value read?
A: The value was “− (− = 0-50%)”.

Q: For “SLRNSTVVR (human cytomegalovirus gH CTL epitope peptide)”, which “MSE (MHC stabilization efficiency)” value is on record?
A: Its value is “+++ (+++ = 200-300%)”.

Q: With “TLLNCAVTK (human cytomegalovirus pp50 CTL epitope peptide)” as the sequence, how does the “MSE (MHC stabilization efficiency)” value read?
A: The value was “+++ (+++ = 200-300%)”.

Q: For “TVRSHCVSK (human cytomegalovirus pp50 CTL epitope peptide)”, which “MSE (MHC stabilization efficiency)” value is on record?
A: The value was “+++ (+++ = 200-300%)”.

Q: How did the “MSE (MHC stabilization efficiency)” value turn out when “YLMDELRYVK (human cytomegalovirus gH CTL epitope peptide)” was run?
A: The value was “− (− = 0-50%)”.
